Test results as given in US20110111406A1 (published 2011).
Where a chain is given by its changes, count along the chain named. Where two headings read alike, the source gives them in different places.

How the values were obtained:
[1] = target: T1, recombinant soluble human IL-6 receptor (SR344) (human, UniProt P08887 20-344); assay: Biacore T100, biotinylated SR344 immobilized via streptavidin (membrane-type IL-6 receptor model), antibody as analyte; ratio of kd at pH 5.8 to pH 7.4
T1 construct: In the 'membrane-type IL-6 receptor' Biacore assays the same SR344 was biotinylated and immobilized via streptavidin; also called soluble IL-6 receptor; membrane-type IL-6 receptor (as biotinylated SR344 immobilized on the sensor chip)
T1 sequence (looked up): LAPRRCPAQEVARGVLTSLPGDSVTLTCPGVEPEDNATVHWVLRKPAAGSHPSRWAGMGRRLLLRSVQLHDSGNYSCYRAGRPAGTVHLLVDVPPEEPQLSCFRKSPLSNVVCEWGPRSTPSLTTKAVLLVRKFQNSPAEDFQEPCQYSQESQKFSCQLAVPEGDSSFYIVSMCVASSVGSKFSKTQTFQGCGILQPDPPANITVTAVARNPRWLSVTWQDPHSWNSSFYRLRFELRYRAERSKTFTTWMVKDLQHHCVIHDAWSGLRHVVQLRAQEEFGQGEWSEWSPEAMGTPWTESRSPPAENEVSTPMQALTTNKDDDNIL
Method: (§1) Binding to the membrane-type IL-6 receptor was evaluated by evaluating binding to the IL-6 receptor immobilized on a sensor chip. SR344 was biotinylated in accordance with a method known among persons with ordinary skill in the art, and the biotinylated SR344 was immobilized on the sensor chip via streptavidin using the affinity between streptavidin and biotin. All the measurements were carried out at 37° C. The mobile phase buffer was 10 mM MES (pH 5.8), 150 mM NaCl and 0.05% Tween 20.
(§2) The pH-dependently-binding clones were injected under the condition of pH 7.4 to allow them to bind to SR344, and then, the pH-dependent dissociation of each clone at the pH of the mobile phase, pH 5.8, was observed. The results are shown in FIG. 21 (results for Fv1-M71, Fv1-M73, Fv3-M71, and Fv3-M73 are shown in FIG. 21, while results for other clones are shown in FIGS. 17 and 19). Analyses were carried out in the same manner as in Example 10 and the pH dependencies of the dissociation rate constants of all of the eleven types of clones are shown in Table 12.

[2] = target: T1, recombinant soluble human IL-6 receptor …; assay: Biacore T100, SR344 as analyte; KD(pH5.8)/KD(pH7.4) compared with WT
Method: (§3) Kinetic analyses of antigen-antibody reactions at pH 5.8 and pH 7.4 were carried out using Biacore T100 (GE Healthcare) on the four antibodies: humanized PM1 antibody (WT) and H3pI/L73, CLH5/L73, and H170/L82 produced in Examples 2 and 4 (buffer: 10 mM MES (pH 7.4 or pH 5.8), 150 mM NaCl, and 0.05% Tween 20). Various antibodies were bound onto a sensor chip immobilized with recomb-protein A/G (Pierce) by amine coupling. SR344 adjusted to concentrations of 9.8 to 400 nM was injected to the chip as an analyte. […] All the measurements were carried out at 37° C. Association rate constants kₐ (1/Ms) and dissociation rate constants kd (1/s) were calculated using Biacore T100 Evaluation Software (GE Healthcare), and dissociation constants KD (M) were calculated on the basis of those values (Table 5). Moreover, the ratio of the affinities at pH 5.8 and pH 7.4 were calculated for each clone to evaluate pH-dependent binding. All the measurements were carried out at 37° C.

[3] = target: T1, recombinant soluble human IL-6 receptor …; assay: Biacore T100, biotinylated SR344 immobilized via streptavidin (membrane-type IL-6 receptor model), antibody as analyte; ratio of kd at pH 5.8 to pH 7.4; remark: listed apart in the source
Method: as §1, §2

[4] = target: T1, recombinant soluble human IL-6 receptor …; assay: Biacore T100, antibody captured on protein A/G, SR344 as analyte, 37C; ratio of KD at pH 5.8 to pH 7.4
Method: as §3

[5] = target: T1, recombinant soluble human IL-6 receptor …; assay: as above; remark: listed apart in the source
Method: (§4) Kinetic analysis of antigen-antibody reactions at pH 7.4 and pH 5.8 was carried out using Biacore T100 (GE Healthcare) for the four types of antibodies prepared: WT-IgG1, H54/L28-IgG1, H170/L82-IgG1, and Fv4-IgG1(buffer: 10 mM MES (pH 7.4 or pH 5.8), 150 mM NaCl, 0.05% Surfactant-P20). The antibodies were bound to a sensor chip on which recomb-protein A/G (Pierce) was immobilized by amine coupling, and SR344 adjusted to an appropriate concentration was injected therein as an analyte. The association with and dissociation from SR344 of each type of antibody were observed on a real-time basis. All the measurements were carried out at 37° C. Association rate constants kₐ (1/Ms) and dissociation rate constants kd (1/s) were calculated using Biacore T100 Evaluation Software (GE Healthcare), and dissociation constants KD (M) were calculated based on those values (Table 17).

[6] = target: T1, recombinant soluble human IL-6 receptor …; assay: Biacore T100, antibody captured on protein A/G, SR344 as analyte, 37C; ratio of kd at pH 5.8 to pH 7.4
Method: as §4

human IL-6 (Toray) [7] = target: T2, human IL-6 (Toray) (human, UniProt P05231 30-212); assay: Biacore T100, antibody captured on protein A/G, human IL-6 as analyte, 37C; ratio of KD at pH 5.5 to pH 7.4
T2 construct: also called human interleukin-6
Method: (§5) Kinetic analysis of antigen-antibody reactions at pH 5.5 and pH 7.4 was carried out using Biacore T100 (GE Healthcare) for the three types of antibodies prepared as mentioned above: Anti-IL6 wild type, Anti-IL6 clone 1, and Anti-IL-6 clone 2 (buffer: DPBS(−) (pH 7.4 or pH 5.5), 150 mM NaCl). The antibodies were bound to a sensor chip on which recomb-protein A/G (Pierce) was immobilized by amine coupling, and then human IL-6 (Toray) adjusted to an appropriate concentration was injected on the chip as an analyte. All the measurements were carried out at 37° C. Association rate constants kₐ (1/Ms) and dissociation rate constants kd (1/s) were calculated using Biacore T100 Evaluation Software (GE Healthcare), and dissociation constants KD (M) were calculated based on those values (Table 14). Furthermore, the ratio of affinity at pH 5.5 and pH 7.4 was calculated for each clone to evaluate the pH-dependent binding.

human IL-6 (Toray) [8] = target: T2, human IL-6 (Toray); assay: Biacore T100, human IL-6 as analyte; KD(pH 5.5)/KD(pH 7.4) compared with Anti-IL6 wild type
Method: as §5

B1: H3pI/L73 (antibody, IgG1, V domains shown)
VH: QVQLQESGPGLVKPSETLSLTCAVSGHSISHDHAHSWVRQPPGEGLEWIGYISYSGITNYNPSLKGRVTISRDTSKNQFSLKLSSVTAADTAAYYCARSLARTTAMDYWGEGTLVTVSS
VL: DIQMTQSPSSLSASVGDSVTITCQASQHISSHLNWYQQKPGKAPELLIYYGSHLHSGVPSRFSGSGSGTDFTFTISSLEAEDAATYYCGQGNRLPYTFGQGTKVEIE
notes: antibody expressed as IgG1; also called H3pI/L73-IgG1; H3pl/L73
B1 was tested, and the “kd(pH 5.8)/kd(pH 7.4)” value [1] was 2.59, the “pH-dependent binding (affinity ratio) relative to WT” value [2] was 15 times and the “kd(pH 5.8)/kd(pH 7.4)” value [3] was 2.59. The “KD(pH5.8)/KD(pH7.4)” value [4] was 41.3.

B2: humanized PM1 antibody (wild type, WT) (antibody, human IgG1, kappa, V domains shown)
VH: QVQLQESGPGLVRPSQTLSLTCTVSGYSITSDHAWSWVRQPPGRGLEWIGYISYSGITTYNPSLKSRVTMLRDTSKNQFSLRLSSVTAADTAVYYCARSLARTTAMDYWGQGSLVTVSS
VL: DIQMTQSPSSLSASVGDRVTITCRASQDISSYLNWYQQKPGKAPKLLIYYTSRLHSGVPSRFSGSGSGTDFTFTISSLQPEDIATYYCQQGNTLPYTFGQGTKVEIKR
notes: Tested as IgG1; also called WT-IgG1; H(WT)/L(WT)
With B2 the “kd(pH 5.8)/kd(pH 7.4)” value [1] was 1, the “kd(pH 5.8)/kd(pH 7.4)” value [3] was 1 and the “KD(pH5.8)/KD(pH7.4)” value [5] was 1.6. The “kd(pH 5.8)/kd(pH 7.4)” value [6] was 2.9 and the “KD(pH5.8)/KD(pH7.4)” value [4] was 2.4.

B3: Anti-IL6 wild type (antibody, human IgG1, kappa, V domains shown)
VH: EVQLVESGGKLLKPGGSLKLSCAASGFTFSSFAMSWFRQSPEKRLEWVAEISSGGSYTYYPDTVTGRFTISRDNAKNTLYLEMSSLRSEDTAMYYCARGLWGYYALDYWGQGTSVTVSS
VL: QIVLIQSPAIMSASPGEKVTMTCSASSSVSYMYWYQQKPGSSPRLLIYDTSNLASGVPVRFSGSGSGTSYSLTISRMEAEDAATYYCQQWSGYPYTFGGGTKLEIKR
notes: also called WT (anti-IL-6 antibody of WO 2004/039826)
With B3 the “KD(pH 5.5)/KD(pH 7.4)” value (human IL-6 (Toray) [7]) was 0.8.

B4: Anti-IL6 clone 1 (antibody, human IgG1, kappa, V domains shown)
VH: B3 VH with F32H, Y60H, D62H, Y103H
VL: B3 VL with L53H, Q89H, Y93H
notes: H chain (c1) and L chain (c1)
With B4 the “pH-dependent binding ability relative to WT” value (human IL-6 (Toray) [8]) was 10 times and the “KD(pH 5.5)/KD(pH 7.4)” value (human IL-6 (Toray) [7]) was 10.3.

B5: Anti-IL-6 clone 2 (antibody, human IgG1, kappa, V domains shown)
VH: B3 VH with F32H, Y60H, D62H, Y103H
VL: B3 VL with N52H, L53H, Q89H, Y93H
notes: H chain (c1) and L chain (c2)
With B5 the “pH-dependent binding ability relative to WT” value (human IL-6 (Toray) [8]) was 10 times and the “KD(pH 5.5)/KD(pH 7.4)” value (human IL-6 (Toray) [7]) was 13.5.
